Measurements reported in patent publication US20250011363A1, “OPTIMIZED SHORTENED PEPTIDE THAT BINDS TO ACETYLCHOLINE RECEPTOR, AND USE THEREOF” (SKINMED CO., LTD., priority 2021, published 2025).
Each block holds one binder with its values, some of them ahead of it.

How the values were obtained:
acetylcholine receptor [1] = assay: SPR, peptide at 10 uM
acetylcholine receptor [2] = assay: SPR, peptide at 10 uM on acetylcholine receptor

Binding affinity (acetylcholine receptor [1]): 22 RU
B1: 6mer-2-1188 (peptide)
peptide: RAPARR

Binding affinity (acetylcholine receptor [1]): 30 RU
B2: 6mer-2-1182 (peptide)
peptide: RHNDKR

Binding affinity (acetylcholine receptor [1]): 32 RU
B3: 6mer-2-1190 (peptide)
peptide: KACIRR

Binding affinity (RU) (acetylcholine receptor [2]): 30 RU
B4: 5mer-661 (peptide)
peptide: RCNMK

Binding affinity (acetylcholine receptor [1]): 37 RU
B5: 6mer-2-1158 (peptide)
peptide: RDNIRK

Binding affinity (RU) (acetylcholine receptor [2]): 20 RU
B6: 5mer-649 (peptide)
peptide: RYSFK

Binding affinity (RU) (acetylcholine receptor [2]): 22 RU
B7: 5mer-950 (peptide)
peptide: KDADR

Binding affinity (acetylcholine receptor [1]): 43 RU
B8: 6mer-2-1193 (peptide)
peptide: REKIRR

Binding affinity (RU) (acetylcholine receptor [2]): 15 RU
B9: 5mer-655 (peptide)
peptide: RKCIR

Binding affinity (RU) (acetylcholine receptor [2]): 29 RU
B10: 5mer-959 (peptide)
peptide: KPNMK

Binding affinity (acetylcholine receptor [1]): 35 RU
B11: 6mer-2-1147 (peptide)
peptide: KFMKKK

Binding affinity (RU) (acetylcholine receptor [2]): 27 RU
B12: 5mer-654 (peptide)
peptide: KEWNR

Binding affinity (RU) (acetylcholine receptor [2]): 22 RU
B13: 5mer-659 (peptide)
peptide: KIHEK

Binding affinity (acetylcholine receptor [1]): 38 RU
B14: 6mer-2-1173 (peptide)
peptide: KCCNKK

Binding affinity (RU) (acetylcholine receptor [2]): 12 RU
B15: 5mer-952 (peptide)
peptide: KTMHK

Binding affinity (acetylcholine receptor [1]): 25 RU
B16: 6mer-2-1155 (peptide)
peptide: RNTNRK

Binding affinity (acetylcholine receptor [1]): 35 RU
B17: 6mer-2-1194 (peptide)
peptide: KYCDRK

Binding affinity (acetylcholine receptor [1]): 27 RU
B18: 6mer-2-1198 (peptide)
peptide: RMSHRR

Binding affinity (acetylcholine receptor [1]): 43 RU
B19: 6mer-2-1151 (peptide)
peptide: RYPVRK

Binding affinity (acetylcholine receptor [1]): 35 RU
B20: 6mer-2-1191 (peptide)
peptide: KKADRK

Binding affinity (acetylcholine receptor [1]): 43 RU
B21: 6mer-2-1176 (peptide)
peptide: RYTEKK

Binding affinity (RU) (acetylcholine receptor [2]): 18 RU
B22: 5mer-951 (peptide)
peptide: RYMGR

Binding affinity (acetylcholine receptor [1]): 35 RU
B23: 6mer-2-1183 (peptide)
peptide: RENNRK

Binding affinity (acetylcholine receptor [1]): 27 RU
B24: 6mer-2-1161 (peptide)
peptide: RHSFKK

Binding affinity (acetylcholine receptor [1]): 27 RU
B25: 6mer-2-1167 (peptide)
peptide: RCAPKR

Binding affinity (acetylcholine receptor [1]): 27 RU
B26: 6mer-2-1153 (peptide)
peptide: KHKPKR

Binding affinity (acetylcholine receptor [1]): 23 RU
B27: 6mer-2-1197 (peptide)
peptide: KNCIKK

Binding affinity (acetylcholine receptor [1]): 25 RU
B28: 6mer-2-1195 (peptide)
peptide: KMTERK

Binding affinity (acetylcholine receptor [1]): 37 RU
B29: 6mer-2-1157 (peptide)
peptide: RNTDRK

Binding affinity (acetylcholine receptor [1]): 21 RU
B30: 6mer-2-1169 (peptide)
peptide: KICERK

Binding affinity (acetylcholine receptor [1]): 39 RU
B31: 6mer-2-1196 (peptide)
peptide: RESKKR

Binding affinity (acetylcholine receptor [1]): 22 RU
B32: 6mer-2-1184 (peptide)
peptide: KFWVRR

Binding affinity (acetylcholine receptor [1]): 30 RU
B33: 6mer-2-1154 (peptide)
peptide: RYEARR

Binding affinity (RU) (acetylcholine receptor [2]): 16 RU
B34: 5mer-653 (peptide)
peptide: KTTWK

Binding affinity (acetylcholine receptor [1]): 41 RU
B35: 6mer-2-1177 (peptide)
peptide: RASEKR

Binding affinity (acetylcholine receptor [1]): 30 RU
B36: 6mer-2-1165 (peptide)
peptide: RIKAKK

Binding affinity (acetylcholine receptor [1]): 34 RU
B37: 6mer-2-1148 (peptide)
peptide: KEKGKR

Binding affinity (acetylcholine receptor [1]): 34 RU
B38: 6mer-2-1162 (peptide)
peptide: KMSERR

Binding affinity (acetylcholine receptor [1]): 23 RU
B39: 6mer-2-1160 (peptide)
peptide: RITVKK

Binding affinity (RU) (acetylcholine receptor [2]): 11 RU
B40: 5mer-958 (peptide)
peptide: RKWKR

Binding affinity (acetylcholine receptor [1]): 34 RU
B41: 6mer-2-1179 (peptide)
peptide: KACVKK

Binding affinity (RU) (acetylcholine receptor [2]): 13 RU
B42: 5mer-656 (peptide)
peptide: KATGR

Binding affinity (RU) (acetylcholine receptor [2]): 22 RU
B43: 5mer-657 (peptide)
peptide: KDNDR

Binding affinity (acetylcholine receptor [1]): 40 RU
B44: 6mer-2-1171 (peptide)
peptide: KMPARR

Binding affinity (RU) (acetylcholine receptor [2]): 32 RU
B45: 5mer-961 (peptide)
peptide: KIANR

Binding affinity (RU) (acetylcholine receptor [2]): 30 RU
B46: 5mer-957 (peptide)
peptide: RDCER

Binding affinity (acetylcholine receptor [1]): 37 RU
B47: 6mer-2-1163 (peptide)
peptide: KCHFKK

Binding affinity (RU) (acetylcholine receptor [2]): 22 RU
B48: 5mer-650 (peptide)
peptide: RPEDK

Binding affinity (acetylcholine receptor [1]): 40 RU
B49: 6mer-2-1192 (peptide)
peptide: KHKNKR

Binding affinity (RU) (acetylcholine receptor [2]): 23 RU
B50: 5mer-953 (peptide)
peptide: RKMAR

Binding affinity (acetylcholine receptor [1]): 35 RU
B51: 6mer-2-1156 (peptide)
peptide: KMNARR

Binding affinity (acetylcholine receptor [1]): 37 RU
B52: 6mer-2-1152 (peptide)
peptide: RNWAKK

Binding affinity (RU) (acetylcholine receptor [2]): 11 RU
B53: 5mer-651 (peptide)
peptide: RFTVR

Binding affinity (acetylcholine receptor [1]): 21 RU
B54: 6mer-2-1174 (peptide)
peptide: RCEPRK

Binding affinity (acetylcholine receptor [1]): 27 RU
B55: 6mer-2-1186 (peptide)
peptide: KEKFRR

Binding affinity (acetylcholine receptor [1]): 41 RU
B56: 6mer-2-1168 (peptide)
peptide: KMKPKK

Binding affinity (acetylcholine receptor [1]): 34 RU
B57: 6mer-2-1175 (peptide)
peptide: RYSKRR

Binding affinity (acetylcholine receptor [1]): 32 RU
B58: 6mer-2-1181 (peptide)
peptide: KACWKR

Binding affinity (acetylcholine receptor [1]): 21 RU
B59: 6mer-2-1149 (peptide)
peptide: KIDFRR

Binding affinity (acetylcholine receptor [1]): 40 RU
B60: 6mer-2-1159 (peptide)
peptide: KDMGKR

Binding affinity (acetylcholine receptor [1]): 40 RU
B61: 6mer-2-1189 (peptide)
peptide: KTAPKK

Binding affinity (RU) (acetylcholine receptor [2]): 11 RU
B62: 5mer-660 (peptide)
peptide: KFDVK

Binding affinity (RU) (acetylcholine receptor [2]): 23 RU
B63: 5mer-652 (peptide)
peptide: RCAAR

Binding affinity (acetylcholine receptor [1]): 42 RU
B64: 6mer-2-1150 (peptide)
peptide: KTDVKK

Binding affinity (acetylcholine receptor [1]): 33 RU
B65: 6mer-2-1164 (peptide)
peptide: RYNHKR

Binding affinity (acetylcholine receptor [1]): 34 RU
B66: 6mer-2-1180 (peptide)
peptide: RAANRR

Binding affinity (acetylcholine receptor [1]): 36 RU
B67: 6mer-2-1187 (peptide)
peptide: RTADRK

Binding affinity (acetylcholine receptor [1]): 25 RU
B68: 6mer-2-1170 (peptide)
peptide: KFTIRR

Binding affinity (acetylcholine receptor [1]): 42 RU
B69: 6mer-2-1185 (peptide)
peptide: RIDAKK

Binding affinity (RU) (acetylcholine receptor [2]): 14 RU
B70: 5mer-955 (peptide)
peptide: KNADK

Binding affinity (RU) (acetylcholine receptor [2]): 14 RU
B71: 5mer-960 (peptide)
peptide: RNPGK

Binding affinity (acetylcholine receptor [1]): 26 RU
B72: 6mer-2-1166 (peptide)
peptide: KCSIKK

Binding affinity (RU) (acetylcholine receptor [2]): 23 RU
B73: 5mer-954 (peptide)
peptide: KTEVK

Binding affinity (RU) (acetylcholine receptor [2]): 19 RU
B74: 5mer-956 (peptide)
peptide: KPTWK

Binding affinity (RU) (acetylcholine receptor [2]): 31 RU
B75: 5mer-658 (peptide)
peptide: KKWGR

Binding affinity (RU) (acetylcholine receptor [2]): 26 RU
B76: 5mer-949 (peptide)
peptide: KMKMK

Binding affinity (acetylcholine receptor [1]): 30 RU
B77: 6mer-2-1178 (peptide)
peptide: KTTVRK

Binding affinity (acetylcholine receptor [1]): 36 RU
B78: 6mer-2-1172 (peptide)
peptide: KNCERR

Binding affinity (acetylcholine receptor [1]): 32 RU
B79: 6mer-2-1146 (peptide)
peptide: REWGRK
